Measured values from the supplement of paper PMC12042874.
± gives the uncertainty stated by the source.

Assay: amyloid nucleation score (Sup35N fusion, yeast selection) (log enrichment); library NNK3; higher = more nucleation; inactive = no reads after selection
In short: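 Three technical output replicates were used for random libraries. Psi-negative yeast expressing peptides of 20 random codons fused to Sup35N were induced with 100 μM copper sulfate for 24 hours and grown 7 days at 30°C on medium lacking adenine and uracil, and input and output plasmid inserts were Illumina-sequenced, excluding sequences with under 100 input reads. The nucleation score is the DiMSum log enrichment of output over input reads, centred on the mode score of non-aggregating sequences.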

Amyloid nucleation score, -0.375 ± 1:
RVQMVLLMNTSFLNVLIMCI

Amyloid nucleation score, 0.258 ± 0.35:
RQNPGLGFLNFFLMV

Amyloid nucleation score, 0.661 ± 0.14:
RPYGSEVVIFMSVSRKPPPA

Amyloid nucleation score, 1.65 ± 0.062:
RVHFALYSV

Amyloid nucleation score, inactive:
RKSSSVRFFEHCVVSDVWLV
RKYCYGMSLFTDMTMLVRRK
RLATREDHAHLLDHACLVG
RLATYALSFPSS
RLGFDITKITWCGIYFAGWV
RLGFF
RLGRLTPKMISYRKVWKYWG
RLGTMVVDLVERARIEGDVF
RLHFCVGPMAPYSMEQSQ
RLKNHSGCIILNRCVSRGRI
RLNRVGNFIAGHLIGA
RLSLFRGKCRVYYYTGSIQV
RLVCCKSHPFDVRYF
RLVYPSVSSLKPIRSCWLG
RLYLESVYYFLSRAHRLSID
RLYNTIFPSKKIWYKKLEGC
RLYRRSCVSSR
RMCGSCYLCYCRERRGYTAF
RMDLEIVLNILHSGMS
RMRSMRSMF
RMSRNMWFWLRLNSNYIVFS
RMTMFRTEAAVVKRSVSTVV
RMVPKMSVCS
RNIELSAPLFWSAAASDVVK
RNISRS
RNKRLKLILYLHRVDEAVAE
RNNDDSVLMDMLCMKCRTWL
RNPDLVVKSQGVNRWGDSRC
RNSVIWNRLYRMRWV
RNWKSYRYAVGRCDMGSELL
RNYNVV
RPQSLVYRFISYHRLYYLYR
RPSSQVYGRWEIYIKYL
RPVVWYISRTSVVLDCAWGS
RQHGMLCSRSTRMVLFKS
RQHMDGVVDI
RQLMIDAQSVYKCCGQPW
RQVVRSTLRLSWSIFLYSYM
RRFVFVYINVPC
RRGVRPNATMSA
RRKLRGALTVEMVFSPVYRR
RRMLNAVEMSYRVGKFSFCW
RRNDRYVCFAMMSRRSGVYL
RRNYRSFKDLLFHDYTFMDS
RRRVSKANPGDVMIWSVIAK
RRSSARGIRYMYSLNCNGEL
RRYDNYRYSHRMFFKRFQAV
RRYVDRYEAIWWCFCIRKLF
RSAFYHNVGGKNRVSWSIL
RSCCLQPT
RSGLHVEGLRSLHRGKVGPC
RSHECGGSLMFVKLGCG
RSHLWGRLASYAMGTHAG
RSHQKEMCVNFNLPVNFSHR
RSHRIF
RSILRNSLSTQMHIGSVSLM
RSLVCRFLTGTDMVCGIGVT
RSLYASLCVRIFDGLYCCMK
RSMNLRSKLMSACGGFMS
RSNLRLGSRDKPAIQL
RSNTPPGISLARPFYPKNRV
RSNWPSTILTSWSARCHWLS
RSPEFCMS
RSQDNCR
RSRAFGDGKNWMHCRRYVM
RSSFKG
RSSSPIRVHTINGDVYTDVV
RSSVLLS
RSTCCWIR
RSTFRRLLRCFGFWRRWSCI
RSTQRTLPQ
RSTVYWFWRSSELLALRLHR
RSVVRFWFFLINRHVYELSL
RSVYYRSLLGTNYCSFLLFD
RSYFYTCDSLDALHVHLASH
RSYLN
RTDCV
RTFFYWIKLAINFSNVCRGF
RTFIKAKLP
RTGEFMRGLMVGDSVKWVF
RTIHVGWVMAIIGTALRCCM
RTKIAFTRVLFATKLWNETN
RTLVPGTHR
RTLYMLRIALGHGPVTLEI
RTLYSQNFK
RTPVKGDRKSWTDRPISTAY
RTRKQRCHRCVWMLLGDYQR
RTSAHGNYFSQLESLRKMML
RTSYVNLLYIMLDLLIRFRS
RTWLGWEGNIIPSETGTYRS
RVGVACKCFIQCLYFVFISI
RVHLGGMYRWVCEVNV
RVIDQMNPQGGWDLTFDSRR
RVLDNTSSCRERNVGGDSFA
RVPACAYACLAYGGYDDMAG
RVPYR
RVSRAGMIMGPMLLFNKYFD
RVVLTVFMFLIQSENACKLH
RVVPMVTVGKIRKNLMD
RVWRSNSPGAEKWTLLTKTL
RWCFCWICHYLDVLCHYCLH
RWCYLTEKKFSGLFNL
RWNEAHITSYVYSRTSMWVF
RWVICEFGR
RWVKSKFAV
RYCNAWLAGKSIFAPFVGTM
RYFSW
RYGFADSYMLFLFRYTPSSG
RYILRSL
RYKRTGIWCFECNRVLVEVF
RYNWVYDFVLNRSSYWCW
RYRSGLDPFRCSYFNSPFYS
RYTFGTAIERVLQVILNEMT
RYVRCFLYTYKNFFD
RYVSSLLSNLRGQKNCVSVL
RYYLGMHFINCMRVRVP
SAGMNMLYMYECKSSSMGFC
SALPQH
SANGMSNRRYSDHHLYVVSA

Amyloid nucleation score, 1.56 ± 0.068:
RLQPFVHFVYCWESIVVCMW

Amyloid nucleation score, 0.047 ± 0.33:
RRVTRSSKAYRVGVSWDGIG

Amyloid nucleation score, 2.15 ± 0.052:
RTAWHMCLFCLNVTNLSWLM

Amyloid nucleation score, 1.62 ± 0.091:
RMVHS

Amyloid nucleation score, 1.67 ± 0.1:
RLINVMVCYLLEGCQGLLL

Amyloid nucleation score, 0.108 ± 0.56:
RRWQVCVAGQDSEGTVKVML

Amyloid nucleation score, 0.283 ± 0.15:
RRYSRVKVRRLFMRNNLMLN

Amyloid nucleation score, 1.78 ± 0.11:
RSFFSWAMNMRGLARWAWME

Amyloid nucleation score, 0.099 ± 0.2:
RWSVSSQTMLSIINDISFFG

Amyloid nucleation score, 1.05 ± 0.19:
RVCSALCIRVLALFGCCSVE

Amyloid nucleation score, -0.096 ± 0.66:
RNEDLSA

Amyloid nucleation score, 0.433 ± 0.25:
RVVLHITGLLPSSKKGVRGE

Amyloid nucleation score, -0.176 ± 1.4:
RVGRSR

Amyloid nucleation score, 0.775 ± 0.2:
SALTIVVLFG

Amyloid nucleation score, 1.09 ± 0.11:
RLINKYWSPNPMLRKFR

Amyloid nucleation score, -0.648 ± 1.1:
RSGWCHLPQVRNMWTVIIDG

Amyloid nucleation score, -0.144 ± 1.1:
RLPPDSQMPSFYCCVDL

Amyloid nucleation score, 0.991 ± 0.13:
RNHIALSLGWIQEDVIGSWN

Amyloid nucleation score, 0.685 ± 0.12:
RWTLYSLSTYYQLCF

Amyloid nucleation score, 1.39 ± 0.093:
RVVAFHIANDLLLSLKKS

Amyloid nucleation score, 1.67 ± 0.065:
SAESKISIVWMEVRINNIFR

Amyloid nucleation score, -0.517 ± 0.84:
RVGTAF

Amyloid nucleation score, 1.4 ± 0.11:
RSMHLTWYW

Amyloid nucleation score, 1.16 ± 0.16:
RYVTCNLEINTWDRVRGWHV

Amyloid nucleation score, 2.8 ± 0.081:
RNSLFLLPSTCSVYIWCFS

Amyloid nucleation score, 1.41 ± 0.12:
RSVATLYGLRSCFCLVCSKL

Amyloid nucleation score, 1.08 ± 0.16:
RVVLMWDYLIDF

Amyloid nucleation score, -0.166 ± 0.66:
RLGEGKCTPYQWFVSNSTSN

Amyloid nucleation score, 1.03 ± 0.14:
RYSSNRLTLMWDCIEGGSAW

Amyloid nucleation score, 0.172 ± 0.56:
RTMAFLIFS

Amyloid nucleation score, 1.74 ± 0.066:
RSFHYRIACESNLAVEVHFR

Amyloid nucleation score, 0.636 ± 0.23:
RWNMLIDVHLNVYHRQDRWC

Amyloid nucleation score, 0.403 ± 0.24:
RRFVVGYRDLMMRFIVRHGE

Amyloid nucleation score, -0.917 ± 1.8:
RWQRLSRHGISDSPLAREAA

Amyloid nucleation score, 2.62 ± 0.071:
RMFNSYNQFLLVAMLPYPLR

Amyloid nucleation score, 1.79 ± 0.079:
RLNAYMCLEMVTLSTRKHVG
